# Source: paper PMC4822050, “Hemi-methylated DNA opens a closed conformation of UHRF1 to facilitate its histone recognition” (Nature Communications, 2016)
# T1: full-length UHRF1 (residues 1–793) (human, UniProt Q96T88 1-793)
# T1 construct: human UHRF1, residues 1–793; monomer by gel filtration; also called wild-type UHRF1; ICBP90
# T1 sequence (looked up): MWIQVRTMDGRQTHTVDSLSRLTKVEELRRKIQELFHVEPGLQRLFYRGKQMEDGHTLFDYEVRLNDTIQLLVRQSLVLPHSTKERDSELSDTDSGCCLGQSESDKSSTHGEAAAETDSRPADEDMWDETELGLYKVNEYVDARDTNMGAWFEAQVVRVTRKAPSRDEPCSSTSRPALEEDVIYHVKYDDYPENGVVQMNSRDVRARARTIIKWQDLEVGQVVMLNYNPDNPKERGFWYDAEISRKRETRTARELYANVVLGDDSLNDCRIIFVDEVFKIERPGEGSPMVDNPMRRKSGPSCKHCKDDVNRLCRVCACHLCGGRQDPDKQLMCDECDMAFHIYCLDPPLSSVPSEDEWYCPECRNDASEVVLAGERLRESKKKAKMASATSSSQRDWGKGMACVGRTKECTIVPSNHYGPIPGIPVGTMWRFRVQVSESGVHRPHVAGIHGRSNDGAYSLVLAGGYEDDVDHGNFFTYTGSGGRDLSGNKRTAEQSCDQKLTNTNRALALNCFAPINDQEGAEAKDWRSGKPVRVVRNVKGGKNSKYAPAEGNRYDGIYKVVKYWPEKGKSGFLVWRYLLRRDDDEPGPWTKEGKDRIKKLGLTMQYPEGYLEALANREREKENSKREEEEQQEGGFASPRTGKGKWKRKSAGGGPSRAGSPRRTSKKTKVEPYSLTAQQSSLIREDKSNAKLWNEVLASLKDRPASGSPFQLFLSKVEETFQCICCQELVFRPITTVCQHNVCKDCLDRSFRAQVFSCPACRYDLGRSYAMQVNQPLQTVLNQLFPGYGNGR
# T2: PHD of UHRF1 (residues 307–366) (human, UniProt Q96T88 307-366)
# T2 construct: human UHRF1, PHD, residues 307–366; also called plant homeodomain; the isolated PHD
# T2 sequence (looked up): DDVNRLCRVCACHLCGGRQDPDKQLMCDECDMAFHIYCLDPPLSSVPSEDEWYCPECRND
# T3: UHRF1^Δ627–674 (human, UniProt Q96T88 1-793, Δ627–674)
# T3 construct: also called spacer deletion mutant
# T3 sequence (looked up): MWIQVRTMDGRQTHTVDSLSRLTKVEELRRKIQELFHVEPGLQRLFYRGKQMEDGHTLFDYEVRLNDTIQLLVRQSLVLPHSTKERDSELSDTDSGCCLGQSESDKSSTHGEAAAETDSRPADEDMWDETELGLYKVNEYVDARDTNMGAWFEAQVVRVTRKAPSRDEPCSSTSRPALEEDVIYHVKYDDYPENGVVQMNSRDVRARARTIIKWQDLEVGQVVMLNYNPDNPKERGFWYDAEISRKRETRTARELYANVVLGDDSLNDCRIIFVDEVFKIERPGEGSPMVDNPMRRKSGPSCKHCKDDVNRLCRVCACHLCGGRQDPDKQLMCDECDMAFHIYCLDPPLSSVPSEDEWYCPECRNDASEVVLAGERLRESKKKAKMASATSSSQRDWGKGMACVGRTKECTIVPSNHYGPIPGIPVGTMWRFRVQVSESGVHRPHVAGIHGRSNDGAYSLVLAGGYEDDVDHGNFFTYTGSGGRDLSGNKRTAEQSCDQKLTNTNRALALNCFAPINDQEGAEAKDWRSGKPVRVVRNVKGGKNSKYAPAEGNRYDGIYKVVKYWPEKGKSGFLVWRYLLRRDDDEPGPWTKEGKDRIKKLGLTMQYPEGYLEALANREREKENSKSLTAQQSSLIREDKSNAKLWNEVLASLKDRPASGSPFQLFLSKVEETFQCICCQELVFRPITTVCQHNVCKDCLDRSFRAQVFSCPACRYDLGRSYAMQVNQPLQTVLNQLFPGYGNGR
# What was measured:
# Settings in all cases: both partners purified
# [1] = biological target: T1, full-length UHRF1 (residues 1–793); assay: ITC; 0.05 mM protein in the cell, 0.5 mM protein or peptide in the syringe, iTC200, 18 °C, 10 mM HEPES pH 8.0, 100 mM NaCl
# [2] = biological target: T2, PHD of UHRF1 (residues 307–366); assay: as above
# UHRF1^Δ627–674 = biological target: T3, UHRF1^Δ627–674; assay: pull-down; GST pull-down: 15 μg GST-tagged protein with 40 μg recombinant protein in 500 μl 20 mM HEPES-NaOH pH 8.0, 100 mM NaCl, 5% glycerol, 0.1% Triton X-100, 4 °C, glutathione resin, Coomassie staining; some panels with increasing hm-DNA
Binder,Kd [1] [µM],fold higher binding affinity than with full-length UHRF1 [2] [fold],binding result (UHRF1^Δ627–674)
"ARTKQTARKSTGGKAPR (peptide, UniProt P68431 2-18, looked up, histone H3, residues 1–17; also called H3K9me0; unmethylated histone H3) [H3 peptide (1–17)]",26,~34,–
"GST-tagged Spacer of UHRF1 (domain or fragment, human, UniProt Q96T88 587-674, looked up, also called GST-Spacer) PGPWTKEGKDRIKKLGLTMQYPEGYLEALANREREKENSKREEEEQQEGGFASPRTGKGKWKRKSAGGGPSRAGSPRRTSKKTKVEPY",–,–,binds
